Measured values as given in paper doi:10.1101/738153.

Assays:
[1] = target: TbBILBO1 N-terminal domain (TbBILBO1-NTD), wild type, residues 1-120 (Trypanosoma brucei); experiment: ITC
[2] = target: TbBILBO1-NTD Y64A (Trypanosoma brucei); experiment: ITC

TbFPC4 C-terminal domain (TbFPC4-CTD), residues 357-404 (domain or fragment)
Kd [1]: 5 µM | fold reduction of binding affinity against wild type [2]: 2.5 fold
